One substance from doi:10.1101/205575 can be followed below.

In data set [1] the test system is AsCpf1 (Cas12a) (Acidaminococcus sp.?). Description: smFRET titration. Conditions: amino-dT in non-target strand, pH 8.0 ([…]) or pH 7.0 ([…].
Another data set deals with FnCpf1 (Cas12a). Description: smFRET titration. The conditions noted are these: amino-dT in non-target strand, pH 8.0 ([…]) or pH 7.0 ([…].

For the substance “cognate DNA target (nPD=0) with Cy5 guide-RNA”, the Kd (usually the free concentration of one partner at which half of the binding sites on the other are occupied at equilibrium, for simple one-to-one binding) in data set [1] stood at 0.1 nM; in the data set with FnCpf1 (Cas12a), 0.27 nM.
